Assay results reported in the nanobody polyreactivity screen of Harvey et al. (2022).

Assay: yeast display, Sf9 membrane polyspecificity reagent, FACS + sequencing; frameworks hold sequencing errors
In short: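 In a synthetic yeast display library (Saccharomyces cerevisiae BJ5465), nanobody expression was induced with galactose for 36–48 hours. FACS gates were set low and high (top ~1%) using anti-HA fluorescence for expression and streptavidin fluorescence for binding of the Sf9 membrane reagent. Each polyreactivity label is drawn from the gate of origin.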

QVQLVESGGGLVQAGGSLRLSCADSGFIFGYYAKGWYRQAPGKERELVADISRGGNTNYADSVKGRFTISRDNAKNTVYLQMNSLKPEDTAVYYCARYRRGKMDYCGQGTQVTVSS
polyreactivity (PSR sort gate): high polyreactivity

QVQLQESGGGLVQAGGSLRLSCAASGNISVTGFMGWYRQAPGKERELVASIGIGGTTYYADSVKGRFSISRDNAKNTVYLQMNSLKPEDTAVYYCAARYLYYAYSYWGQATQVTVSS
polyreactivity (PSR sort gate): low polyreactivity

QVQLVESGGGLVQAGGSLRLSCAASGRTFRRNAMGWYRQAPGKEWELVADISNGDSTKYADSVKGRFTISRDNAKNTVYLQMNSLKPEDTAVYYCNAQRYRVVVYNSHGWQTRNYWGQGTQVTVSS
polyreactivity (PSR sort gate): low polyreactivity

QFQLVESGGGLVQAGGSLRLSCAASGSTFVYYAMGWYRQAPGKERELVAAITASGGGTYYADSVKGRFTISRDNAKNTVYLQMNSLKPEDTAVYYCAAYLGWGYDYWGQGTQVTVSS
polyreactivity (PSR sort gate): low polyreactivity

QVQLVESGGGLVQAGGSLRLSCAASGFIFRYYAKGWYRQAPGKERELVAAISSSGGSTYYADSVKGRFTISRDNAQKTVYLQMNSLKPEDTAVYYCNAYNYGYIGYGYNYWGQGTQVTVSS
polyreactivity (PSR sort gate): high polyreactivity

QVQLVESGGGLVQAGGSLRLSCAASGFIFWYYAMGWYRQAPGKERELVAGITSGGSTNYADSVKGRFTISRDNAKNSVYLQMNSLKPEDTAVYYCAAAPYGGFGRGYDYWGQGTQVTVSS
polyreactivity (PSR sort gate): high polyreactivity

QVQLVESGGGLVQAGASLRLSCAASGFIFAINTMGWNLQAPGKETELVAGINWRGSSKYYADSVKGRFTISRDNAKNTVYLQMNSLKPEDTAVYYCAARRFWGSDYDYWGLGTQVTVSS
polyreactivity (PSR sort gate): high polyreactivity

QVQLVESGGGLVQAGGSLRLSCAATGRIFNPNAMGWYRQAPGKERELVAAITSGDSTNYADSVKGRFTISRDNAKNTVYLQMNSLKPEDTAVYYCAAGPSYRPPWLRQGGYDYWGQGTQVTVSS
polyreactivity (PSR sort gate): low polyreactivity

QVQLVESGGGLVQAGGSLRLSCAASGYTFPYYAMGWYIQAPGKERELVAAISRSGGTTYYADSVKGRFTISRDNAKNTVYLQLNSLKPEDTAVYYCAALYGSRSTYHMDDYWGQGTQVTVSS
polyreactivity (PSR sort gate): high polyreactivity

QVQLVESGGGLVQAGGSLRLSCAASGRTFLLYAMGWYRQAPGKERELVAAITSGGGRTYYADSVKGRFTISRDNAKNTVYLQMNSLKPEDTAVYYCAATRPATYAAYDYWGQGTQVTVSS
polyreactivity (PSR sort gate): high polyreactivity

QVQLVESGGGLVQAGGSLRLSCAASGFILGYNAMGWYRQAPGKERELVADITFSGGGTNYADSVKGRFTISRDNAKNSVYLQMNSLKPEDTAVYYCNAAAFSQLRVRYDYWGQGTQVTVSS
polyreactivity (PSR sort gate): low polyreactivity

QVQLVESGGGLVQAGGSLRLSCAASGSIFGGYAMGWYRQAPGKERELVAAISRSGGRTYYADSVKGRFTISRDNAKNTVYLQMNSLKPEDTAVYYCNRVTGYDSGDGYWGQGTQVTVSS
polyreactivity (PSR sort gate): high polyreactivity

QVQLVESGGGSVQAGGSLRISCAASGSIFSLYAMGWYRQAPGKERELVASISSDGSTYYADSVKGRFTISRDNAKNTVYLQMNSLKPEDTAVNYCATAVYSRYSPYAGYYYWGQGTQVTVSS
polyreactivity (PSR sort gate): low polyreactivity

QVQLVESGGGLVQAGGSLRLSCAASGITFYFYAMGWYRQAPGKERELVAAITSTGTSTYYADSVKGRFTISRDNAKNTVYLQMNSLKPEDSAVYYCAKDQHYPHYQPYWSRYDYWGQGTQVTVSS
polyreactivity (PSR sort gate): low polyreactivity

QVQLVESGGGLVQAGGSLRLSCAASGSIFPWYAMGWYRQAPGNERELVAAINQIGGGGTNYADSVKGRFTISRDNAKNTVYLQMNSLKPEDTAVYYCAADHVWIRAYRFTKGDDYWGQGTQVTVSS
polyreactivity (PSR sort gate): low polyreactivity

QVQLVESGGGLVQAGGSLRLSCAASGRIFYFNAMGWYRQAPGKERELVADISTGGRTNYADSVKGRFTISRDNAKNTVYLQMNSLNPEDTAVYYCNAEPYTSSGGYRGYDFDYWGQGTQVTVSS
polyreactivity (PSR sort gate): low polyreactivity

QVQLVESGGGLVQAGGSLRLSCAATGGTFNVYAMGWYRQAPGKESELVAAIRWSGGSTYYADSVKGRFTISRDNAKNTVYLQMNSLKPEDTAVYYCAARFYGRSQTYGSWGLGTQVTVSS
polyreactivity (PSR sort gate): high polyreactivity

QVQLVESGGGIVQAGGSLRLSCAASGRSFGIYAMGWYRQAPGKERELVAGITRGDRTFAYSVKGRFTISRDNAKNTVYLQMNSLKPEDTAVYYCNADVYPYKLALPAGMGYWGQGTQVTVSS
polyreactivity (PSR sort gate): high polyreactivity

QVQLVESGGGLVQAGGSLRLSCAASGSTFVKYDMGWYRQAPGKERELVAAITTTGGSTYYADSVKGRFTISRDNAKNTVYLQMNSLIPEDTAVYYCATLVSASRSRRFGYEYWGQGTQVTVSS
polyreactivity (PSR sort gate): high polyreactivity

QVQLQESGSGLVQAGGSLRLSCAASGAIFPANLMGWYRQAPGKERELVAGISYGSITYCADSVKGRFNISRDNAKNTVYLQMNSLKPEDTAVYYCAVWRPGGDEYYYWGQGTQVTVSS
polyreactivity (PSR sort gate): low polyreactivity

QVQLVESVGGLVQAGGSLRLSCAATRSIFKIMRWYRQAPGKERELVAAISSSVGNTYYADSVKGRFTISRDNAKNTVYLQMNSLKPEDTAVYYCAAQSKYYQYYSWGQGTQVTVSS
polyreactivity (PSR sort gate): high polyreactivity

QVQLVESGGGLVQAGGSLRLSCAASGGIFYVNAMGWYRQAPGKERELVAAITSDGVSTYYADSVKGRFTISRDNAKNTVYLQMNSLKPEDTAVYYCAARFQYYRKYDYWGQGTQVTVSS
polyreactivity (PSR sort gate): low polyreactivity

QVQLVESGGGLVQAGGSLRLSCAASGSTYGYTMGWYRQAPGKERELVADITSGGTTNYADSVKGRFTISRDNAKNTVYLQMNSLKPEDTAVYYCATRGAEWGWLGSIFNPFDYWGQGTQVTVSS
polyreactivity (PSR sort gate): low polyreactivity

QVQLVESCGGLVQAGGSLRLSCAASGSTFYLNAMGWYRQAPGKERELVAAIDYRGGSTYYADSVKGRFTISRDYAKNTVYLQMNSLKPEDTAVYYCAKDRPGFLVGWGGGYDYWGQGTQVTVSS
polyreactivity (PSR sort gate): low polyreactivity

QVQLVESGGGLVQAGGSLRLSCAASGFIFRYYAMGWYRQAPGKERELVAAISWSGSSTYYADSVKGRFTISRDNAKNTVYLQMNSLKPEDTAVYYCNAVTRNARDYWGQGTLVTVSS
polyreactivity (PSR sort gate): high polyreactivity

QVQLVESGGGLVQAGGSLRLSCAASGITFARYAMGLYRQAPGKERELVAAISWSGGSTYYADSVKGRFTISRDNAKNTVYLQMNSLKPEDTAVYYCAAGGRVRRNKFDYWGQGTQVTVSS
polyreactivity (PSR sort gate): high polyreactivity

QVQLVESGAGLVQAGGRLRLSCAASGFTFYYNAMGWYRQAPGKEREFVAAISRSAGSTTYADSVKGRFTISRDNAKNTVYLQMNSLKPEDTAVYYCNARRSRGKSYDYWGQGTQVTVSS
polyreactivity (PSR sort gate): high polyreactivity

QVQLVESGGGLVQAGGSLRLSCAASGLTFDSYTMGWYRQAPGKERELVAAITNSGGSTYYADSVKGRFTISRDNAKNTVYLQMNSLKPEDTAVYYCAAFRTSRLYGGSYGYWGQGTQVTVSS
polyreactivity (PSR sort gate): high polyreactivity

QVQLVESGGGLVQAGGSLRLSCAASGRTFNCYAMGWYRQAPGKERELVAAISNGGNTNYADSVKGRFTISRDNAKNTVYLQMNSLKPEDTAVYYCAARATPAFSRRGYYWGQGTQVTVSS
polyreactivity (PSR sort gate): high polyreactivity

QVQLVESGGGLVQAGGSLRLSCAASGRTFLHNAKGWYRQAHGKERELVAAIDSGGTTHYADSVKGRFTISRDNAKNTVYLQMKSLKPEDTAVYYCAARPTRGNWWYGYWGQGTQVTVSS
polyreactivity (PSR sort gate): low polyreactivity

QVQLVESGGGLVQAGGSLRLSCAASGLTFRRNAMGWYRQAPGKERELVAVNSRSGGSTYYADSVKGRFTISRDNAKNTVYLQMNCLKPEDTAVYYCNKRTRRTYDYWGQGTQVTVSS
polyreactivity (PSR sort gate): high polyreactivity

QVQLVESGGGLVQAGGSLRLSCAASGSTFYYYTMGWYRQAPGKERELVATITYRSGNTYYADSVKGRFTISRDNAKNTVYLQMNSLKPEDTAVYYCAALRRVLPYKRYDYWGQGTQVTVSS
polyreactivity (PSR sort gate): high polyreactivity

QVQLVESGGGLVQAGGSLRLSCAASGSIFPVYAMGWYRQAPGKERELVATIRSGGARTYYADSVKGRFTISRDNAKNTVYLQMNSLKPEDTAVYYCATRWPHYGGYYYWGQGTQVTVSS
polyreactivity (PSR sort gate): high polyreactivity

QVQLVESGGGLVQAGGSLRLSCSASGSIFPFNAMGWYRQAPGKERELVAAIRWSDGRTYYADSVKGRFTISRDNAKNTVYLQMNSLKPEDTAVYYCAAKSYWGQGTQVTVSS
polyreactivity (PSR sort gate): high polyreactivity

QVQLVESGGGLVQAGGSLRLSCAASGSILNFYAMGWYRQAPGKERELVAAISSGGSTNYADSVKGRFTISRDNAKNTVYLQMNSLKPEDTAVYYCAATGGDRYEAYYYWGQGTQVTVSS
polyreactivity (PSR sort gate): low polyreactivity

QVQLVESGGGLVQAGGSLRLSCAASGRIFLKYTLGWYRQAPGKERELVAAISRGGSTYYADSVKGRFTISRDNAKNTVYLQMNSLKPEDSAVYYCAATSYRRTGYNYWGQGTQVTVSS
polyreactivity (PSR sort gate): high polyreactivity

QVQLVESGGGLVQAGGSLRISCAASGYTVKSYAMGWYRQAPGKERELVAAISNGGNTYYADSVKGRFTISRDNAKNTVYLQMNSLKPEDTAVYYCAARYGYFYSRYDHWGQGTQVTVSS
polyreactivity (PSR sort gate): low polyreactivity

QVQLVESGGGLVQAGGSLRLSCAASGNTFGPYDMGWYRQAPGKERELVAGITSGGSTYYADSVKGRFTISRDNAKNTVYLQMNSLKPEDTAVYYCAADYYLWVYWYDYWGQGTQVTVSS
polyreactivity (PSR sort gate): high polyreactivity

QVQLVESGGGLVQAGGSLRLSCAASGFTFRYYTMGWYRQAPGKEREFVAAIRGGGSSTYYADSVKGRFTISRDNAKNTVYLQMTSLKPEDTAVYSCAAVTSQLYGYRYYYGGQGTQVTVSS
polyreactivity (PSR sort gate): high polyreactivity

QVQHVESGGGLVQAGGSLRLSCAASGYTFRYYAMGWYRQAPGKERELVARINRSGGSTYYADSVKGRFTISRDYAKYTVYLQMNSLKPEDTAVYYCNRDYGWHYSYDYWGQGTQVTVSS
polyreactivity (PSR sort gate): high polyreactivity

QVQLVESGGGVGQAGGSLRLSCAASGLSCVDYAMGWYRQAPGKERELVAAISTTGGSTYYADSVKGRFTISRDNAKNTVYLQMKSLKPEDTAVYYCNARFVHHSWGTNYYWGQGTQVTVSS
polyreactivity (PSR sort gate): high polyreactivity

QVQLVESGGGLVQAGGSLRLSCAASGRTLRYYAMGWYRQAPGTERELVASISIGGSTYYADSVKGRFTISRDNAKNTVYLQMHSQKPEATAVYYCATDYSTSGYGYWGQGTQVTVST
polyreactivity (PSR sort gate): low polyreactivity

QVQLVESGGGLVQPGGSLLLSCAASRITFDHYAMAWYRRAPGKERELVAAITSGGNTNYADSVKGRFTISRDNAKNPVYLQMNSLKPEDTAVYYCNAGYDVCYYYWGKGTQVTVSS
polyreactivity (PSR sort gate): low polyreactivity
